Measured values as given in the supplement of paper PMC9732359.
± gives the uncertainty stated by the source.

Experiment: protein stability index of a GFP-peptide fusion (yeast GPS) (PSI 1-4); higher = more stable; sorted into four equal gates, so the index is relative within each strain
Summary of the method: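 For each peptide, the protein stability index sums the read frequency in every gate after multiplying it by the gate number. Read frequencies came from plasmids that were PCR-amplified from each gate and Illumina-sequenced, with reads assigned to strains by barcodes. The gates were four equal bins of GFP/Cherry fluorescence ratio applied to mid-log yeast in leucine-free medium carrying a pooled library of tiled 17-residue yeast protein peptides fused downstream of GFP on a Cherry-expressing plasmid.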

Row | Sequence | protein stability index (doa10∆) | protein stability index (pdr5∆) | protein stability index (san1∆) | protein stability index (ubr1∆)
1 | RSKFGGDFLDFQVHERL [ARP7] | 3.15 ± 0.11 | 3.11 ± 0.1 | 3.5 ± 0.075 | 3.32 ± 0.075
2 | ADVLAMAKVEVNLAAIP [RIP1] | 1.84 ± 0.12 | 1.99 ± 0.13 | 1.82 ± 0.22 | 2.05 ± 0.077
3 | TRNSNNLAIVELVRLLI [BRR2] | 2.56 ± 0.06 | 2.29 ± 0.049 | 2.53 ± 0.066 | 2.4 ± 0.049
4 | FSISYKPPTQKTDTKVS [SRP21] | 2.24 ± 0.037 | 2.15 ± 0.042 | 1.98 ± 0.059 | 2.11 ± 0.033
5 | TSKQHKRSGHRTAPKSD [RPL18A] | 3.18 ± 0.23 | – | 3.1 ± 0.14 | 3.06 ± 0.2
6 | TPYNADFDGDEMNLHVP [RPO31] | 2.83 ± 0.087 | 3.35 ± 0.085 | 3.07 ± 0.075 | 3.21 ± 0.062
7 | QLTPQQQQLVNQMKVAP [GAL11] | 2.8 ± 0.061 | 2.98 ± 0.058 | 3.01 ± 0.061 | 2.79 ± 0.049
8 | YNLRSLNLINAKLWFYI [RPN3] | 1.32 ± 0.046 | 1.24 ± 0.051 | 1.38 ± 0.083 | 1.48 ± 0.054
9 | NLPPHYALFLKALRRKI [SSN2] | 2.15 ± 0.11 | 1.79 ± 0.095 | 2.8 ± 0.22 | 1.7 ± 0.087
10 | ASYAKYLIDHIKVEGAV [RPL22A] | 2.95 ± 0.17 | 3.13 ± 0.15 | 2.85 ± 0.092 | 3.23 ± 0.11
11 | QYQLLYNLKNDILTNLE [SWI1] | 1.81 ± 0.033 | 1.89 ± 0.037 | 1.74 ± 0.077 | 1.65 ± 0.031
12 | VKNLSLMSCISVGTDPM [RPB2] | 1.88 ± 0.067 | 1.67 ± 0.061 | 2.48 ± 0.058 | 2.43 ± 0.063
13 | VHTANFSERGSNTRTMT [MED2] | 3.37 ± 0.3 | 3.35 ± 0.26 | 3.08 ± 0.14 | 3.26 ± 0.22
14 | ICKNCSAILLSETDKRQ [RPO31] | 2.59 ± 0.086 | 2.85 ± 0.058 | 2.81 ± 0.068 | 2.96 ± 0.041
15 | TPNTNSNSTPNANQQFL [SWI1] | 3.11 ± 0.054 | 3.15 ± 0.047 | 2.93 ± 0.053 | 3.1 ± 0.035
16 | SDRSLSEDLFADGLLQV [BRR2] | 3.04 ± 0.28 | – | – | –
17 | KGEVYTIPLGGSVHKLP [PRE3] | 2.97 ± 0.065 | 2.95 ± 0.082 | 2.84 ± 0.088 | 3.04 ± 0.044
18 | EHGLQITHTENYNDLIV [BRN1] | 3.5 ± 0.27 | 2.81 ± 0.18 | – | 2.77 ± 0.089
19 | VMMDVDSSGVNDLHHSE [RPN3] | 3.34 ± 0.082 | 3.31 ± 0.076 | 3.35 ± 0.066 | 3.19 ± 0.054
20 | YTDELEEDVYLDPLARV [FAS2] | 3.33 ± 0.095 | 3.32 ± 0.1 | 3.54 ± 0.07 | 3.44 ± 0.053

Row | Sequence | protein stability index (doa10∆) | protein stability index (pdr5∆) | protein stability index (san1∆) | protein stability index (ubr1∆)
21 | LHQHVVLKCLKSLESQR [RPC34] | 2.77 ± 0.11 | 2.58 ± 0.083 | 2.41 ± 0.095 | 2.53 ± 0.11
22 | IYPRTVIDIEIHVLEQD [SKI6] | 1.42 ± 0.055 | 1.88 ± 0.049 | 1.6 ± 0.15 | 1.83 ± 0.041
23 | EFIPHSTEYMMQFAKSK [RPN6] | – | 3.28 ± 0.17 | 2.8 ± 0.1 | 1.91 ± 0.14
24 | RGGGHHSFEDAHTPMLQ [FAS1] | 3.3 ± 0.26 | 3.48 ± 0.21 | – | –
25 | TPLTENILIASLMDTLI [YCG1] | 1.86 ± 0.049 | 1.7 ± 0.04 | 2.07 ± 0.069 | 2.35 ± 0.035
26 | IITKNENFLKEVFQLRI [GAL11] | 1.56 ± 0.091 | 1.54 ± 0.067 | 1.54 ± 0.11 | 1.26 ± 0.062
27 | LRVEHIKHSKCRQEFLE [RPL21A] | 1.59 ± 0.21 | 2.43 ± 0.16 | 1.17 ± 0.18 | 1.31 ± 0.11
28 | NGQYAAFVKDMQVYLVP [RPC37] | 2.67 ± 0.12 | 1.52 ± 0.089 | 1.4 ± 0.073 | 1.83 ± 0.12
29 | VVYHPSNNELVRTNTLT [RPS8A] | 2.647 ± 0.019 | 2.396 ± 0.018 | 2.455 ± 0.019 | 2.647 ± 0.014
30 | FVCRGMAATQTIEQSPR [ECM29] | 1.7 ± 0.063 | 1.93 ± 0.062 | 1.58 ± 0.23 | 1.56 ± 0.054
31 | LLEETQAKLKKNVETLE [SMC4] | 3.39 ± 0.092 | 3.18 ± 0.085 | 3.31 ± 0.08 | 3.51 ± 0.071
32 | QKRLEAGALNLASPEVK [DIS3] | – | 2.64 ± 0.18 | – | 2.82 ± 0.081
33 | GFIDASCIAVMAGLMHF [RRP45] | 1.48 ± 0.041 | 1.55 ± 0.04 | 1.85 ± 0.082 | 1.46 ± 0.031
34 | KAEKKVELHGKRKLDIG [PRP8] | – | 2.8 ± 0.17 | 3.13 ± 0.16 | –
35 | METRINILLRERDSYKL [YIL149C/MLP2] | 1.96 ± 0.27 | 1.59 ± 0.11 | 1.2 ± 0.27 | 2.3 ± 0.15
36 | SKLLVPQKNVKIQVVDR [PRE10] | 3.02 ± 0.074 | 2.84 ± 0.049 | 2.53 ± 0.099 | 2.72 ± 0.052
37 | KKMMNTLVHTRVKIANT [SSN2] | 2.69 ± 0.066 | 2.35 ± 0.05 | 2.67 ± 0.041 | 2.78 ± 0.033
38 | NSINNNNIKNGTNNISQ [YDL088C/ASM4] | 2.79 ± 0.044 | 2.75 ± 0.046 | 2.74 ± 0.046 | 2.98 ± 0.035
39 | VTFSVMPPKKSWRNITN [SMC4] | 2 ± 0.11 | 2.45 ± 0.15 | 2.23 ± 0.19 | 2.82 ± 0.14
